Assay results as given in US20230279126A1 (published 2023).

T1: extracellular domain of human IL23R (hIL23R ECD) (human, UniProt Q5VWK5 24-355)
T1 construct: The immunogen was an ECD-human IgG1 hinge-Fc fusion
T1 sequence: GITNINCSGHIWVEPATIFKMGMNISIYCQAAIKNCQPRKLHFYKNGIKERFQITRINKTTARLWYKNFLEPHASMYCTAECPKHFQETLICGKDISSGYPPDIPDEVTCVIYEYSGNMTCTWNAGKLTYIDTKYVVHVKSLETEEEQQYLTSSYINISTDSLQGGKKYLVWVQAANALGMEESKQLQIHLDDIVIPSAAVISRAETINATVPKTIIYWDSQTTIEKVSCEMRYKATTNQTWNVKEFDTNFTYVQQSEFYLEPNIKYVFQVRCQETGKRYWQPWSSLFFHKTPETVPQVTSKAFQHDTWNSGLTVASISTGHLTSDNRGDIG

B1: hIL23R_VHH19 (VHH)
VHH: QVQLQESGGGSVQAGGSLRLSCAASGYTSCSYDMSWYRQAPGKKREFVSAIHSDGTTSYADSMKGRFTISQDNAKNTVYLQMNSLKPEDTAMYYCKTDPNYSDHVCPPYWGRGTQVTVSS
notes: Phagemid clone with his-tag, periplasmic extract
B2: hIL23R_VHH17 (VHH)
VHH: QVQLQESGGGSVQAGGSLRLSCTASGYTFSTMKYMGWFRQAPGKEREGVAAIWIAAGNTYYADSVKGRFTISQDNTKNTVYLQMNSLKPEDTALYYCAAARYGFVPSTWYLPERYNYWGQGTQVTVSS
notes: as for B1
B3: hIL23R_VHH15 (VHH)
VHH: QVQLQESGGGSVQAGGSLRLSCAASPGTYTSRYMGWFRQAPGKEREGVATIWPAGGNTVYADSVKGRFTISQDGAKKTVYLQMNSLKPEDTAMYYCAAAKYGGTSLAPYTYNYWGQGTQVTVSS
notes: as for B1
B4: hIL23R_VHH12 (VHH)
VHH: QVQLQESGGGSVQAGGSLRLSCAASGYTSSSRCMGWFRQAPGKEREGVARIYTPTRTTWYADSVKGRFTISQDNAKNTVYLEMASLKPEDTAKYFCAAGASCAVDLFSYWGQGTQVTVSS
notes: as for B1
B5: hIL23R_VHH13 (VHH)
VHH: QVQLQESGGGSVQAGGSLRLSCAASGYTYCSYDMKWYRQAPGKKREFVSAIDSDGSTSYADSVKGRFTISQDNAKNTVYLQMNSLKPEDTAMYYCKTEGTIPVGVCPNYWGQGTQVTVSS
notes: as for B1
B6: hIL23R_VHH14 (VHH)
VHH: QVQLQESGGGLVQPGGSLRLSCAASGYTYCSYDMKWYRQAPGKKREFVSAIDSDGSTSYADSVKGRFTISQDNAKNTVYLQMNSLKPEDTAMYYCKTEGTVPVGVCPNYWGQGTQVTVSS
notes: as for B1
B7: hIL23R_VHH8 (VHH)
VHH: QVQLQESGGDSVQAGGSLRLSCAASGYTYCSYDMKWYRQAPGKEREFVSGIDSDGSISYADSVKGRFTISQDNAKNTVYLQMNSLKPEDTAMYYCKTEGTIPVGACPNYWGQGTQVTVSS
notes: as for B1

target: T1, extracellular domain of human IL23R …; assay: periplasmic extract ELISA (PE-ELISA) of phage clones, colorimetric
Summary of the method: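 VHH domains were obtained from camels immunized sequentially with human and mouse receptor extracellular domain–Fc fusion proteins, then cloned with a his-tag into a phagemid in E. coli. The phage library was panned over several rounds on the human or mouse extracellular domain, and single clones were checked for selective binding by colorimetric periplasmic extract ELISA.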

Row | Binder | binding result
1 | B1 | binds
2 | B2 | binds
3 | B3 | binds
4 | B4 | binds
5 | B5 | binds
6 | B6 | binds
7 | B7 | binds
